In article PMC4106346, “The Oligomeric States of the Purified Sigma-1 Receptor Are Stabilized by Ligands” (The Journal of Biological Chemistry, 2014):

Target: Q60492
Test: TOXCAT (ToxR-driven CAT reporter of transmembrane self-association); TM domain between MBP and ToxR in the membrane of E. coli MM39; CAT activity of lysates as percent of glycophorin A
Conditions: other: TOXCAT (ToxR-driven CAT reporter of transmembrane self-association)

WVFVNAGGWMLAMCLLHASL [TM2 domain of S1R with G91L in the TOXCAT construct]
TOXCAT response relative to nonmutated TM2: attenuated to only 60% of that observed from the nonmutated TM2
